Test: label from the status in PepcDB records

Sequence | protein production
MEKNVTPMIRQYLDIKKKYKDAVLFFRVGSFYEMFFDDAIEVSKLLNLTLTKRENVPMCGVPYHTSKEYIRKLILFDKKVAICEQASNSTSGGPLEREVVEVITPGVIIDEDFLNDDINNYLVAISDYKDYYSFSYIDLSTSSLGIMFYENGFFEKLKRDLEKYSPKEIIVSENFYYEYSEKLNLSRFLINRVPTWHLDKDIAIKTIKEHFNILGLSSLGFDEEKPYYISIFLIINHIKNNLKNLLSNIDKIDINNDSSYMFLDDVTQVNLELVKNNNDFSSQYSLYSVLNDCKTAMGKRLLREFILNPILNISEINTRLDHVEFFCKNISLTVTLRETFINIWDIERIISRIQMKRYIKKDFLFIEKALSVFFTVKKLFDKHNFDYWNFDKFEEDSISKVYFLINSAISSAPDELIKRGYDLKLDNLKDLKINANKYIDQYLESERLLSKINNLKIRKTNNRGLFFEVTKSNYAQVPPHFMESQALNSSKRYKTEKLISLEVDINNAEDNVVAFEQEIFDEIASNVVMHNKVLKKVAEFFAYIDLVVNFGYLAKKNEYKRPVLTSGKEILLEKSRHPVVEHYTKNTEIFTENFVRINKEKYFCLITGPNMAGKSTYLRQVALITLMAHIGSFVPASKALIGITDKIFCRIGASDNIAKGESTFLVEMNETANILRNATEKSLIIMDEVGRGTSTNDGLAIAYSIIEYILEYIKARSLFATHFHELSSINHQAFINLSMKIEKQGNDLVFLREVEEKPSLNSYGIYVARIAGLPLRVIDRANVILESLVGREGNSCLEFLPHVSSDGNDKEILKNDTDIHIKLNEYLELKNFISNIDINNITPFQSIELLNQIVLKVISQSS | failed
NAEKVALAKKVADESAVLLENRNDILPLDLNKYKSVAVVGPNSNQAVLGDYAWTMGDTKEAVSLLQGLQESAGDKIMIRHAEGCDWWSQDKSHIAEAVEVVRNSDIAVVAVGTRSTYLGRSPKYSTAGEGFDLSSLELPGVQEELLKEIKKTGKPMIVVLIAGKPLAMPWVKENADALLVQWYAGEQQGCTLADILLGKVNPSGKLNVSFPRSTGNTPCFYNHFVTDREEPFDQPGTPEEPKGHYIFDKPEPLWNFGHGKSYTTFDYVD | failed
MSLPANQIKEPGKQFQPAKSLKEPSQESLPGNLLKEPSQESRILCPDPDIVVELNVGGQFYTTTMGTLMKHPGSKFSEILSRSAKHYKDAQGRFFIDRPGTYFGPLLDYLRTGQVPTEYIPEVYQEAKFYQIHPLVKLLEDKPQIFGEQVARMQFLMGVPNYRENLEVLLHLARAEAVAMRSSKVVVCVVRTEEDDAKCTEPLHILEAKKTPVVKFGPWKAGPVTEDFVYCLEKDIRAKGYTVASQRYHLSRDPYTCFWILVFTWW | failed
MITETQLTAIQTYALQKLAHDHSGHGRDHLQRVNRLARRLAKDEGANLNLTLAAAWLHDVIDDKLMANPAKAHQDLIVQLNAQNVTADDQTAIFAIIDHMSFSKSFNGPQKLSLEGQVVQDADRLDAIGAIGIARALYYSGHVGEKIYDPAIAPREHMTREQYRHQPGTAINHFYEKLFKLAALMNTDTAKALAAHRTAVMHEFVDQFKAEWTADDKALEHHHHHH | not failed
MLTTRLLISQRGRIAMKQVHLLTPVAGQLVPLESVHDPVFSQGMMGQGFGIEPTDGQVVAPISGKVTMVAASLHAIGFTGNNGLEVLVHLGIDTVELADRPPFKVNVQVGDTVEAGEKVAMMDLAAITSANKDTTVIMAVTNTADMVTKLTPELGEVRAGVVGAVVELKEHVAEASVVKGKGGKYDELATQIIAQVGGPVNVKSVIHCITRVRFYLKDEGQANDEAIRNLKGVIDVAKAGGQYQVVIGPAVTDVYDAIVGQLGAGFGDADASAVAMEKEANRLAWQKMTPWQKVKHGFSSLIGVITGSMIPVIGLLAASGILKGILSLLKNFNLVSATTPTYVIINAMGDSVFYFLPIFVGFTAAKKLGADPVIMGIIGGVLTYPAIVGMATTGKVTGHLLGMAINANFFGIPVHVASYTYSIFPMIAGAWLASKLEPWLKRVIPTVLRMIFVPLFEVVIISGAIIIILGPIITALSGALAAGIVAIYKLSPAISGLIIGGFYQVLVIFGLHWAIIPIVVNDITTTGHSYLNAIVSATMVAQGGAVLAIALKSKFANIKELAWPATISAFCGVTEPAMYGINLKYGRAFITASIGGAVGGFLTGLFNVNMWGFAGSLIGVTSFINPKGLDFSFYGFLIASAIDLIVAFTLTWMFGFSDNDVKNVKKAPEKKHLGQQVAN | failed
MKRWGLIFPTLYFFFLFIMIFVFNFPREVTRQWMWIQVGGIVFMIALGLYFDGYASLKEVITIGAFTLLWLGLSFTVNIRKEYFTLLGLIIELVLDLALREGG | failed
MGRGRSSSSSSIESSSKSNPFGASSSTRNLSTDLRLGLSFGTSSGTQYFNGGYGYSVAAPAVEDAEYVAAVEEEEENECNSVGSFYVKVNMEGVPIGRKIDLMSLNGYRDLIRTLDFMFNASILWAEEEDMCNEKSHVLTYADKEGDWMMVGDVPWEMFLSTVRRLKISRANYHY | failed
MEGFHMVSDMCPQITGWRIYVFVVRVFKNVISPNVFELGLILADYAGSNSRIEATVDRRLAPFYEDRFVENEWKTITSFLVRKATDSVRATKHEYGILFMDRTVVVEAPPRSPPVPDFDFTPFDYILEKSAYKNVLVDVVGALVDVGGLTTDYYGLKMSFKIKDRYNEVLECEARNKQAEYLDGYFKSLGKGNFVVALSFWRLTELSNPKLASHGAISKVVANPDIPEVADIAMVVF | failed
MGHHHHHHSHMALKDYALEKEKVKKFLQEFYQDDELGKKQFKYGNQLVRLAHREQVALYVDLDDVAEDDPELVDSICENARRYAKLFADAVQELLPQYKEREVVNKDVLDVYIEHRLMMEQRSRDPGMV | not failed
MTQAATILRTGRKFDQVLRGAREVFMSDGFEGANVDDIARAAGVSKATLYSYFPDKRLLFVEVAQTECQLMAERILSMIDEDRPVREVLTITATQLVAFLISDFAQQVFRICLAERERFPELARAFYAAGPENGQRQICEYLEKAVTKGELVIADIPMAAEQFSELCKTRLWTRAVFGIQTRFTQAEIDEVALAAVDTFLARYGA | failed
MKILRRTITGAATGLLLALPGVALAGTTLRVASEEAFATPAKVAAQSALEHVEKTLPDATGGEVSVQLYPGGALGSEKELIKALADGTVDAMVLSPGNAAGIVPEVQLFSASYLFESYDHARAVIKDDAFFEALAQIIAEKQAGFQLAGIGLTGTRNYYSRSRAVETIEDLSGVKMRVMSSPTEFKVWSELGTLPTTIPAPEIYTSLQTGVVDAAESSLPAISGSKYYEVAPYISLTQHQFNLHLFLVSDIAMSRLSEGQQAAVLQAFREAGHIEIDEAIRLSDEVLAFLRERPGVTVTEVDTAPFAQKLRAVQDEVATGLGVEPLLEIIRSHGTQG | failed
MERHEEIKKGAWIGILGNTVLAVLKILVGLLTGSYAILADGIDTSTDIFTSLVILLSSRISGKPPDETHPYGHERAETIASKIISFVMFYAGASLLVESVKRLVKQEFSLELTLTAFIVVGISVAGKTFLFLYKLSLGKRLKSSATISDALNMRNDIMISGTVLAGMVAMKTFGWWWLDSLLAIFVSIMILRTSFSVFYEAAYELMDGMKRTELDMYDDIFAVLERFPNVHNPHRVRIRRVGTKYFIEMDIEVDGKMSVKDAHELTVKIRKEMLKRRDDIEDVTIHVEPLGNVEEEGFGLKKGEKK | failed
MNTEPANVEDKLPMNILVLGSDEKQGGRSDTIMLVHIQKDFQPIVISIPRDTRVKVEGIKGYSKINAAYAYGKSKLAVKTVEDILGIKIDKYVVVNYEAVEKIVDLVGGVDVEVPFHLYYVDTTPGKELYINIPAGLQHLDGKKAVEFLRWRHNSNGKEYGRGGDLGRIEMQRKLLYALIEKMLKPQNIVRLPLIVQTVSKYTDHNFTKNEIMWFIQNVGKFNTQNIMMTILPGYPKYIDRVSYYILNEEKCRALIDDLNEPEVLKDSMKIKILSKSFDDKATQLKNDLESKGYSNVNLGRVSKLESSEVELKRVNRKYLELLKNDIDLSTYQVVYSPDYSDKFDVYIKVKLEHHHHHH | not failed
RHDFSDQTAMLELFSQLFGPYPFDQYSVVVTEDDLEIPLEAQGLSIFGANHAGGTKQWERLIAHELAHQWFGNSLGLAQWDDIWLNEGFACYAE | failed
MAALLGIVSPVTFTGKHPVNSRSRRRTVVKCSNERRILFNRIAPVYDNLNDLLSLGQHRIWKNMAVSWSGAKKGDYVLDLCCGSGDLAFLLSEKVGSTGKVMGLDFSSEQLAVAATRQSLKARSCYKCIEWIEGDAIDLPFDDCEFDAVTMGYGLRNVVDRLRAMKEMYRVLKPGSRVSILDFNKSNQSVTTFMQGWMIDNVVVPVATVYDLAKEYEYLKYSINGYLTGEELETLALEAGFSSACHYEISGGFMGNLVAMR | failed

Source: a protein production outcome set (Wang et al. 2014)
